Key:
[1] = biological target: SpCas9 Mut 4110 N767E,Q771R,K772Q,K775D,R780K,Q844R,L847M,K848T,D850N,I852F,K913E,G915R,F916W,I917V,V922M (Streptococcus pyogenes) (UniProt Q99ZW2); assay: cell_activity; settings: yeast survival assay; PAM not stated
[2] = biological target: SpCas9 Mut 2.2 (TurboCas9) V842L,Q844R,F846Y,L847M,I852F (Streptococcus pyogenes) (UniProt Q99ZW2); assay: cell_activity; settings: HEK293T; 5% alleles unedited vs 36% for WT; PAM not stated

## ADE2 gRNA ; ADE2 target site
[1]
  activity (fold vs WT SpCas9): 2

## VEGFA gRNA ; VEGFA target site
[2]
  activity (fold vs WT SpCas9): 1.5

## HIS3 gRNA ; HIS3 target site
[1]
  activity (fold vs WT SpCas9): 3.9

Source: patent publication US20240043820
